Measured values as given in paper PMC9992711, “Two-step structural changes in M3 muscarinic receptor activation rely on the coupled Gq protein cycle” (Nature Communications, 2023).

Columns and labels:
[1] = biological target: T1, mouse M1 muscarinic receptor (mM1R) (Mus musculus, UniProt P12657); assay: receptor FRET and RFP-PH translocation in HEK293T cells; format: cell-based
T1 construct: gene Chrm1; mM1R-YFP-CFP; wild-type mM1R
T1 sequence (P12657 1-460): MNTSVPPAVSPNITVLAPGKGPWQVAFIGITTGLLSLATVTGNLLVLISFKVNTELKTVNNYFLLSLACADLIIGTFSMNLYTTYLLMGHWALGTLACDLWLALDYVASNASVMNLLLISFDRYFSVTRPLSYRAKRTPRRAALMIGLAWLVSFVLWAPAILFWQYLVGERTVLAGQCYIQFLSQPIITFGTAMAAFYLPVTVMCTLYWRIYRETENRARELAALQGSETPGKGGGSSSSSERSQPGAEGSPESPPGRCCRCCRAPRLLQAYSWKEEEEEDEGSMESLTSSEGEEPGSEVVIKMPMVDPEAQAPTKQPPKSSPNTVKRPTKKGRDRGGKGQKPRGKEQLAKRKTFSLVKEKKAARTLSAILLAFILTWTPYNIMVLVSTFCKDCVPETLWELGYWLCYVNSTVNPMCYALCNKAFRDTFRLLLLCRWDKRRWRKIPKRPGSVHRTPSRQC

[2] = biological target: T2, human M3 muscarinic receptor (hM3R) (Homo sapiens, UniProt P20309, DEL271-484); assay: intramolecular receptor FRET in HEK293T cells, concentration-response; format: cell-based
T2 construct: gene CHRM3; hM3R-YFP-CFP (EYFP replaces segment between Ala270 and Lys485 in ICL3; Cerulean at C-terminus)

hM3R-Cerulean (human) [3] = biological target: hM3R-Cerulean (human) (UniProt P20309); assay: FRET or BRET; CFP/YFP photometry on single live HEK293T (tsA-201) cells; labelled pair co-transfected with the remaining cognate G protein subunits (GRK2 too for Gαq-CFP with Gβ1-YFP); whole-cell patch, pipette with 0.1 mM GTP; 10 μM Oxo-M applied; room temperature
hM3R-Cerulean (human) [4] = biological target: hM3R-Cerulean (human) (UniProt P20309); assay: FRET or BRET; CFP/YFP photometry on single live HEK293T (tsA-201) cells; labelled pair with the remaining cognate G protein subunits co-transfected (GRK2 too for Gαq-CFP with Gβ1-YFP; only the two probes for hM3R-CFP with YFP-PLCβ1); 10 μM Oxo-M applied and washed out
[5] = biological target: hM3R-EYFP-Cerulean (human) (UniProt P20309)

Chain of heterotrimeric Gq protein (P50148 whole entry, looked up, one chain of several): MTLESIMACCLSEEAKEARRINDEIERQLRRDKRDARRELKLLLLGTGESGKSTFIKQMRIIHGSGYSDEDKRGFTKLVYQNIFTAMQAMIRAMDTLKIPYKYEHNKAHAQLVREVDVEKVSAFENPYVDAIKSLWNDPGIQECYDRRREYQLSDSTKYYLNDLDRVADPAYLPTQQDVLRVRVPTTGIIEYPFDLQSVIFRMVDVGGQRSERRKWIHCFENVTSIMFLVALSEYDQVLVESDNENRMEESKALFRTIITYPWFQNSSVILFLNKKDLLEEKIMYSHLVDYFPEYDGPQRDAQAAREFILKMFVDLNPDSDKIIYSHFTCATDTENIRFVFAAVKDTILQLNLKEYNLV

C[N+](C)(C)CC#CCN1CCCC1=O [Oxo-M, oxotremorine-M]
receptor FRET and RFP-PH translocation in HEK293T cells [1]: wild-type mM1R or hM3R plasmid showed a strong translocation of RFP-PH from the plasma membrane to cytosol by Oxo-M
EC50 [2]: 112 nM

Gβγ subunits (bovine Gβ1-EYFP with Gγ2) (from UniProt P62871 1-340; P59768 1-71) (complex; other documents disagree on this pair)
time constant τ of the FRETr increase on Oxo-M (hM3R-Cerulean (human) [3]): 0.23 s
deactivation time constant τ of FRETr after Oxo-M washout (hM3R-Cerulean (human) [4]): 0.53 s

heterotrimeric Gq protein (from UniProt P50148 1-359) (complex)
intramolecular FRETr of hM3R-YFP-CFP, time constant τ of step 1 on Oxo-M, intact HEK293T cells [5]: 0.22 s
